Tests used:
RyR2 and Cav1.2 = assay: Coimmunoprecipitation with E-C coupling channels; format: binding, mouse; conditions: anti-HA immunoprecipitation
Excerpt: FIGS. 5A-H. JP2 truncations are nonfunctional in regulating Ca^2+ transients. A) An antibody against the HA tag was used to reveal the localization of adenoviral expression of tagged full-length JP2 and truncations, as indicated, in adult wild-type cardiomyocytes. All the three version of JP2 can be localized in the striated pattern. B) Full-length JP2 and JP2(1-565) forms complexes with RyR2 and Cav1.2 In vivo. An antibody against HA was used for immunoprecipitation […]. The RyR2 and Cav1.2 that were pulled down were detected by Western blot analysis. […] IB, immunoblot. C) Adenovirus-mediated expression of full-length JP2, FLAG-JP2(1-565)-HA, and JP2(566-end)-HA in JP2-KD) cardiomyocytes. D) Representative steady-state Ca^2+ transients under 1-Hz field stimulation. The fluorescence intensity (F) of Ca^2+ imaging was normalized to the baseline (FO). The red lines overlapping on Ca^2+ imaging show the profile of the moment of Ca^2+ transient firing on the scanning line in a point-by-point way. A straighter line means better synchronization of the Ca^2+ transients. Note that expression of full-length JP2, but not JP2 truncations, improves the amplitude and synchronization of Ca^2+ transients. E-G) Summary of Ca^2+ transient amplitude, index of desynchronization (mean absolute deviation of firing time), and duration of 50% decay (T5) (n=68, 70, 70, and 52 for Ad-Empty, Ad-JP2, […], and Ad-JP2(566-end), respectively). Only full-length JP2 Improves the amplitude, synchronization, and decay of Ca^2+ transients. H) Summary of SR Ca^2+ content, which was assessed by caffeine-induced SR Ca^2+ release (n=17, 17, 17, and 12 for Ad-Empty, Ad-JP2, Ad-JP2(1-565), and Ad-JP2(566-end), respectively). **, p<0.01 versus indicated groups; N.S., not significant.
Cleavage at the primary calpain proteolysis site (Arg-565/Thr-566) splits apart the C-terminal SR-binding TM domain and N-terminal plasma membrane-binding MORN domains of JP2. […]

MEF2C = biological target: T1, MEF2C (Homo sapiens, UniProt Q06413); assay: Co-IP of Myc-tagged MEF2C and HA-tagged JP2NT in 293 cells; format: binding
T1 construct: expressed in transfected cells; host or cells: 293 cells
Excerpt: The MEF2 family, master regulators of hypertrophic genes in cardiomyocytes, binds to the A/T enriched consensus sequence (C/TTA(A/T)4TA G/A), which shares the same core sequence with TATA box. Thus, it was hypothesized that JP2NT directly interacts with MEF2 binding sites.

cardiac hypertrophy = assay: Angiotensin-induced cardiac hypertrophy in JP2NT OE mice; format: in vivo, mouse
Experimental: A transgenic mouse line with cardiac specific overexpression of an exogenous protein sequence corresponding to JP2NT was prepared. JP2NT (JP2(1-565)) transgenic mice were generated based on a tet-off system. The Flag and HA tagged JP2NT cDNA was cloned downstream of tet-operated alpha-MHC promoter, enabling the cardiac specific and conditional expression of JP2NT (FIG. 9A). The plasmid (αMHC-JP2NT) was delivered by pronuclear injection into fertilized eggs to make transgenic founders. The transgenic mouse lines were backcrossed to C57 background for 9 generations. αMHC-JP2NT mice have been crossed with αMHC-tTA mice to generate double transgenic αMHC-tTA-JP2NT mice (noted as JP2NT OE mice). This allows for inducible and cardiac-specific expression of JP2NT, in which tTA binds to tet-operon and activates transcription of JP2NT. Thus, the expression and nuclear localization of JP2NT in transgenic mice have been confirmed.

chromatin = assay: Biochemical fractionation for chromatin association; format: cell-based; conditions: MNASE digestion, Western blot
Excerpt: FIGS. 10A-D. JP2NT contains a NLS and a chromatin/DNA-binding domain. A-B) A conserved NLS in JP2 N-terminus is essential for nuclear accumulation of JP2NT. a-c, Subcellular localization of eGFP and eGFP-fused JP2 and eGFP-JP2NT in 293T cells. Full length JP2 localizes on both plasma membrane and ER network (b). […] C-D) JP2NT associates with chromatin. a, Schematic of the subcellular fractionation approach (adapted from Wisoka et al 2001). b, Subnuclear distribution of JP2NT and fragments/mutants. JP2NT is present in both soluble nuclear (S3) and chromatin fractions (S4). Deletion of the MORN domains (JP2NT JP2NT^ΔMORNs) had no effect on subnuclear distribution of JP2NT. However, the amount of chromatin-associated JP2NT was decreased by deletion of the bNLS alone (JP2NT^ΔMORNs/ΔbNLS), deletion of the ARR alone (JP2 JP2NT^ΔMORNs/ΔARR), or deletion of both the bNLS and ARR (JP2^ΔMORNs/ΔbNLS/ΔARR and JP2NT^ΔbNLS/ΔARR). Histone H3: chromatin marker.
Ultracentrifuge based protein fractionation was performed following the protocol described previously (van Berlo et al., 2013). For some experiments, the soluble nuclear fraction (Nu-S) was separately extracted using nuclear extraction buffer (NEB) from the Tissue subcellular fractionation kit of Thermo Scientific, and the remaining insoluble fraction was subjected to MNASE digestion for chromatin fraction extraction. […]

T1 sequence (Q06413 whole entry, species assumed): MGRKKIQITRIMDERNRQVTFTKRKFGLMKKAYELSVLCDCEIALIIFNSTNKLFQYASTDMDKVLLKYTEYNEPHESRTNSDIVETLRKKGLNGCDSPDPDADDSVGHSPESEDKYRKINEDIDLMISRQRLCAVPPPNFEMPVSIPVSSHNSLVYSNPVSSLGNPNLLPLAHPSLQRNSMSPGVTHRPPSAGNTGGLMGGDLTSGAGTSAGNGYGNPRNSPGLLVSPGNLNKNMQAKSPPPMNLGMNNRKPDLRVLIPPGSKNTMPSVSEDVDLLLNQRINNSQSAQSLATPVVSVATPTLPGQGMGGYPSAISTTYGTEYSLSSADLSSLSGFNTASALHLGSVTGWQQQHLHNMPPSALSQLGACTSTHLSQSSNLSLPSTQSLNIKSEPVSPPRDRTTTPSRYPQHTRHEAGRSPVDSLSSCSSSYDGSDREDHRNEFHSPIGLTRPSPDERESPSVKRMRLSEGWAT

B1: JP2NT: shorter form of Junctophilin-2 including the first 565 amino acids of N-terminus of JP2 (protein, UniProt Q9BR39 1-565, looked up, fragment)
chain: MSGGRFDFDDGGAYCGGWEGGKAHGHGLCTGPKGQGEYSGSWNFGFEVAGVYTWPSGNTFEGYWSQGKRHGLGIETKGRWLYKGEWTHGFKGRYGIRQSSSSGAKYEGTWNNGLQDGYGTETYADGGTYQGQFTNGMRHGYGVRQSVPYGMAVVVRSPLRTSLSSLRSEHSNGTVAPDSPASPASDGPALPSPAIPRGGFALSLLANAEAAARAPKGGGLFQRGALLGKLRRAESRTSVGSQRSRVSFLKSDLSSGASDAASTASLGEAAEGADEAAPFEADIDATTTETYMGEWKNDKRSGFGVSERSSGLRYEGEWLDNLRHGYGCTTLPDGHREEGKYRHNVLVKDTKRRMLQLKSNKVRQKVEHSVEGAQRAAAIARQKAEIAASRTSHAKAKAEAAEQAALAANQESNIARTLARELAPDFYQPGPEYQKRRLLQEILENSESLLEPPDRGAGAAGLPQPPRESPQLHERETPRPEGGSPSPAGTPPQPKRPRPGVSKDGLLSPGAWNGEPSGEGSRSVTPSEGAGRRSPARPATERMAIEALQAPPAPSREPEVALYQG
modifications: GST or adenoviral forms
notes: shorter form of Junctophilin-2 including the first 565 amino acids of N-terminus of JP2
interaction with RyR2 and Cav1.2 (RyR2 and Cav1.2): interact | interaction with MEF2C (MEF2C): interaction | Angiotensin-li induced cardiac hypertrophy (cardiac hypertrophy): resistant | association with chromatin (insoluble nuclear fraction) (chromatin): detected in both soluble (S3) and chromatin containing insoluble (P4) nuclear fractions
